Results reported in patent publication US20140287029A1 (US Dept. of Health and Human Services, published 2014).

B1: NGEP peptide P356 (L) (peptide)
peptide: WLLPAAVVGT
notes: Synthetic peptide, purity >95%; positions counted on the NGEP long form (L)
B2: NGEP peptide P215 (L) (peptide)
peptide: VLLEVVPDV
notes: as for B1
B3: MUC-1 (P1240) peptide (peptide)
peptide: SLSYTNPAV
notes: Synthetic control peptide, purity >95%; also called positive control peptide
B4: NGEP peptide P855 (L) (peptide)
peptide: IVFEHVVFSV
notes: as for B1
B5: NGEP peptide P113 (S) (peptide)
peptide: LVWEEDLKL
notes: Synthetic peptide, purity >95%; positions counted on the NGEP short form (S)
B6: NGEP peptide P846 (L) (peptide)
peptide: LLAIRLWAV
notes: as for B1
B7: NGEP peptide P143 (peptide)
peptide: FLDNIRAAGL
notes: Synthetic peptide, purity >95%; also called P143 (5)
B8: NGEP peptide P170 (L) (peptide)
peptide: ALLSASWAV
notes: as for B1
B9: NGEP peptide P10 (S) (peptide)
peptide: GLGGPPLPTL
notes: as for B5
B10: NGEP peptide P703 (L) (peptide)
peptide: GLFDEYLEMV
notes: Synthetic peptide, purity >95%; positions counted on the NGEP long form (L); also called NGEP-P703
B11: NGEP peptide P258 (L) (peptide)
peptide: ILFEILAKT
notes: as for B1

The binders below were run against T1, HLA-A2 molecules on T2 cells (human) (assay: T2 cell-binding assay, flow cytometry of HLA-A2 on T2 cells, peptide 25 µg/mL).
T1 construct: whole, on cells; MHC class I molecule on the surface of T2 cells
Text: The T2 binding values are expressed in mean fluorescence intensity. The values in parentheses are fold increases as compared with the negative control (CAP-7 peptide).

Binder	T2 Binding (mean fluorescence intensity) [MFI]	fold increase compared with the negative control (CAP-7 peptide) [fold]
B1	354	4
B2	464	5.2
B3	452	5.1
B4	203	2.3
B5	367	4.1
B6	126	1.4
B7	203	2.3
B8	185	2.1
B9	212	2.4
B10	565	6.4
B11	280	3.1
